Assay results: article PMC9839844, “PPDPF Promotes the Development of Mutant KRAS‐Driven Pancreatic Ductal Adenocarcinoma by Regulating the GEF Activity of SOS1” (Advanced Science, 2022)

Molecular target: T1, SOS1^Cat (catalytic module of SOS1: REM and CDC25 domains), recombinant (UniProt Q07889 566-1046)
T1 construct: SOS1, Cat domain (REM and CDC25 domains together); cloned into the ProEX HTb vector; also called SOS^Cat; Cat domain; source: E. coli BL21 (Rosta), purified (His beads)
T1 sequence: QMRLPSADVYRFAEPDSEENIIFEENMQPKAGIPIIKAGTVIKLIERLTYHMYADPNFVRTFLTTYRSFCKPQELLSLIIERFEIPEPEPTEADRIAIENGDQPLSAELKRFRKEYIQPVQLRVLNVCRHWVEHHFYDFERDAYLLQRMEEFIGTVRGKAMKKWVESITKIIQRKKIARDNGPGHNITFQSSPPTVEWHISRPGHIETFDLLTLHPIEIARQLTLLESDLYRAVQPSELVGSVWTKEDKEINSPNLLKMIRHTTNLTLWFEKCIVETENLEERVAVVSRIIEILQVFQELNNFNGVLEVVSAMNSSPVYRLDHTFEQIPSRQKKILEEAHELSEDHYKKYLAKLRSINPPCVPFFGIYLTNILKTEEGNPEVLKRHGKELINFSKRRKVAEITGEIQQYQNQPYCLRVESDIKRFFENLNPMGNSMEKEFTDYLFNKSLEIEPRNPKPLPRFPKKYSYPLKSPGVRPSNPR
Experiment: pull-down; GST pulldown in vitro with recombinant proteins
Conditions: both partners purified

binding result: binds
B1: PPDPF, recombinant (natural protein, UniProt Q9H3Y8 1-114, looked up)
chain: MAAIPSSGSLVATHDYYRRRLGSTSSNSSCSSTECPGEAIPHPPGLPKADPGHWWASFFFGKSTLPFMATVLESAEHSEPPQASSSMTACGLARDAPRKQPGGQSSTASAGPPS
notes: Pancreatic progenitor cell differentiation and proliferation factor (PPDPF); subcloned into pGEX-4T-1; The methods say that the beads were incubated with thrombin; also called PPDPF recombinant protein; source: E. coli BL21, purified (GST beads)
